From article PMC8286842, “The structures of E. coli NfsA bound to the antibiotic nitrofurantoin; to 1,4-benzoquinone and to FMN” (Biochemical Journal, 2021)

Tests used:
Format in all cases: biochemical, Escherichia coli
[1] = substrate: NC(=O)C1=CN([C@@H]2O[C@H](COP(=O)(O)OP(=O)(O)OC[C@H]3O[C@@H](n4cnc5c(N)ncnc54)[C@H](OP(=O)(O)O)[C@@H]3O)[C@@H](O)[C@H]2O)C=CC1; assay: steady-state kinetics, purified enzyme (global ping-pong fit with nitrofurantoin); conditions: FMN; pH 7.0; 25.0 °C; varied: cofactor
[2] = substrate: NC(=O)N/N=C/c1ccc([N+](=O)[O-])o1; assay: steady-state kinetics of reduction by NADPH, purified enzyme; conditions: FMN; pH 7.0; 25.0 °C
[3] = substrate: NC(=O)c1cc(N2CC2)c([N+](=O)[O-])cc1[N+](=O)[O-]; assay: as above; conditions: FMN; pH 7.0; 25.0 °C
purified protein [4] = substrate: CC1=CC(=O)c2ccccc2C1=O; assay: purified protein; conditions: FMN; pH 7.0; 25.0 °C
purified protein [5] = substrate: O=C1C=CC(=O)C=C1; assay: purified protein; conditions: FMN active site, stacked on FMN; O2′ hydroxyl of FMN, backbone NH of Ser […], Gln […], close to Arg […]; a separate, additional quinol ring appears covalently attached at Cys […]; pH 7.0; 25.0 °C
purified protein [6] = substrate: O=C1CN(/N=C/c2ccc([N+](=O)[O-])o2)C(=O)N1; assay: purified protein; conditions: FMN active site, parallel to the FMN ring; hydrogen bonds involving Arg […], Lys […], Arg […] and Ser […]; pH 7.0; 25.0 °C

B1: NfsA (Escherichia coli K-12) (protein)
chain: MTPTIELICGHRSIRHFTDEPISEAQREAIINSARATSSSSFLQCSSIIRITDKALREELVTLTGGQKHVAQAAEFWVFCADFNRHLQICPDAQLGLAEQLLLGVVDTAMMAQNALIAAESLGLGGVYIGGLRNNIEAVTKLLKLPQHVLPLFGLCLGWPADNPDLKPRLPASILVHENSYQPLDKGALAQYDEQLAEYYLTRGSNNRRDTWSDHIRRTIIKESRPFILDYLHKQGWATR
notes: untagged, dimer
B1 was tested, and the Km [1] was 10.9 ± 1.6 (Km) µM, the kcat [1] was 81 ± 3 s⁻¹ and the kcat/Km [1] was 7.4e+06 ± 1e+06 M⁻¹ s⁻¹. The Km [2] was 13 ± 2 (Km) µM, the kcat [2] was 29.6 ± 0.9 s⁻¹ and the kcat/Km [2] was 2.3e+06 ± 200000 M⁻¹ s⁻¹. For the same protein, the Km [3] was 190 ± 20 (Km) µM, the kcat [3] was 42 ± 1 s⁻¹ and the kcat/Km [3] was 230000 ± 2000 M⁻¹ s⁻¹. The Km (purified protein [4]) was 11 ± 2 (Km app) µM, the kcat (purified protein [4]) was 9 ± 0.4 s⁻¹ and the kcat/Km (purified protein [4]) was 820000 ± 80000 M⁻¹ s⁻¹. For the same protein, the Km (purified protein [5]) was 3 ± 0.4 (Km app) µM, the kcat (purified protein [5]) was 24 ± 0.8 s⁻¹ and the kcat/Km (purified protein [5]) was 8e+06 ± 800000 M⁻¹ s⁻¹. The Km (purified protein [6]) was 20.6 ± 1.6 (Km) µM, the kcat (purified protein [6]) was 81 ± 3 s⁻¹ and the kcat/Km (purified protein [6]) was 3.9e+06 ± 200000 M⁻¹ s⁻¹.
